Measured values from paper PMC3467072.

How the values were obtained:
[1] = target: Rv3066 regulator, full-length, with a 6xHis tag at the C-terminus (Mycobacterium tuberculosis strain H37Rv) (UniProt I6X658); test: crystal structure
[2] = target: T1, Rv3066 (TetR-family regulator) (Mycobacterium tuberculosis H37Rv) (UniProt I6X658); test: DNase I footprinting
T1 sequence: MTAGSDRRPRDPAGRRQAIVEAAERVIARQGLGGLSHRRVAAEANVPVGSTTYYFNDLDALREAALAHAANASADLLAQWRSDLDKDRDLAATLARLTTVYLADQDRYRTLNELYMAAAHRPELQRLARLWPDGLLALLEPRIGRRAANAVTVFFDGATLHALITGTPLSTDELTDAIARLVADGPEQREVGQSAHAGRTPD

Substance: Rv3066 regulator, full-length, with a 6xHis tag at the C-terminus (from UniProt I6X658 1-202) (natural protein)
- stoichiometry N [1]: 2

Substance: TCGAGATCTTTCACCATGACACGACGTTACGGGGATCGACCGCGCGAACGCTGGGCGGATTTTGTCTCCCACCGGTGTGCCTACTCACGTGTGGACGCACGAGCCTCCTTTGTGTACATTTGTACACAAAGGAGGGGTCTTGATCTACCTATACCTCTTGTGCGCGATCTTCGCGGAAGTGGTGGCAACCAGCCTGCTCAAAAGCACGGAAGGGTTCACTCGGTTG (double strand) [226-bp mmr promoter probe (IR1, IR2 removed)]
- binding [2]: binds
